Target: SARS-CoV-2 core replication-transcription complex (nsp12 polymerase with nsp7 and nsp8), elongating on RNA (SARS-CoV-2) (UniProt P0DTD1)
Assay: single-molecule magnetic tweezers (RNA synthesis traces)

For “SARS-CoV-2 nsp13 helicase (wild type) (from UniProt P0DTD1 5325-5925) (enzyme)”, the KA of the first helicase (nsp13.1) binding to the core RTC was 0.22 nM⁻¹ and the KA of the second helicase (nsp13.2) binding to RTC-nsp13.1 was 0.47 nM⁻¹.
